Test results reported in the Immune Epitope Database (IEDB).
pKd: −log10 of the molar value.

Legend:
HLA-B*45:01 = test: IEDB peptide-MHC binding, purified MHC/competitive/radioactivity; filed as Kd, often an IC50 or EC50 that approximates it; ≥ and ≤ were set here for values at or beyond the usual limits of such assays
HLA-B*40:01 [1] = test: as above
HLA-B*40:02 = test: as above
HLA-B*44:03 = test: as above
HLA-B*18:01 = test: as above
HLA-B*44:02 = test: as above
HLA-B*35:01 = test: as above
HLA-B*39:01 = test: IEDB peptide-MHC binding, purified MHC/competitive/fluorescence; filed as Kd, often an IC50 or EC50 that approximates it; ≥ and ≤ were set here for values at or beyond the usual limits of such assays; conditions: source organism: Rhizobium wenxiniae
HLA-B*40:01 [2] = test: IEDB peptide-MHC binding, purified MHC/direct/fluorescence; filed as Kd, often an IC50 or EC50 that approximates it; ≥ and ≤ were set here for values at or beyond the usual limits of such assays; conditions: source organism: Rhizobium wenxiniae
HLA-A*02:01 = test: as above; conditions: source organism: Rhizobium wenxiniae
HLA-A*31:01 = test: as above; conditions: source organism: Rhizobium wenxiniae
HLA-B*08:01 = test: as above; conditions: source organism: Rhizobium wenxiniae
HLA-B*15:01 = test: as above; conditions: source organism: Rhizobium wenxiniae
HLA-B*07:02 = test: as above; conditions: source organism: Rhizobium wenxiniae
HLA-A*03:01 = test: as above; conditions: source organism: Rhizobium wenxiniae
HLA-A*01:01 = test: as above; conditions: source organism: Rhizobium wenxiniae
HLA-B*27:05 = test: as above; conditions: source organism: Rhizobium wenxiniae
HLA-A*26:01 [3] = test: as above; conditions: source organism: Rhizobium wenxiniae
HLA-A*69:01 = test: as above; conditions: source organism: Rhizobium wenxiniae
HLA-A*11:01 = test: as above; conditions: source organism: Rhizobium wenxiniae
HLA-A*30:02 = test: IEDB peptide-MHC binding, purified MHC/competitive/radioactivity; filed as Kd, often an IC50 or EC50 that approximates it; ≥ and ≤ were set here for values at or beyond the usual limits of such assays; conditions: source organism: Dengue virus 1 Brazil/97-11/1997
HLA-B*51:01 = test: as above; conditions: source organism: Dengue virus 2 Jamaica/1409/1983
HLA-B*58:01 = test: IEDB peptide-MHC binding, purified MHC/direct/fluorescence; filed as Kd, often an IC50 or EC50 that approximates it; ≥ and ≤ were set here for values at or beyond the usual limits of such assays; conditions: source organism: Entamoeba histolytica HM-1:IMSS
HLA-B*57:01 = test: as above; conditions: source organism: Entamoeba histolytica HM-1:IMSS
HLA-A*26:01 [4] = test: IEDB peptide-MHC binding, purified MHC/competitive/fluorescence; filed as Kd, often an IC50 or EC50 that approximates it; ≥ and ≤ were set here for values at or beyond the usual limits of such assays; conditions: source organism: Bacillus anthracis str. A2012
[5] = source organism: Mammarenavirus choriomeningitidis
[6] = source organism: SARS coronavirus Tor2
[7] = source organism: Mammarenavirus lassaense
[8] = source organism: Mammarenavirus brazilense
[9] = source organism: Lassa virus Josiah
[10] = source organism: Mammarenavirus juninense
[11] = source organism: Mammarenavirus tacaribeense
[12] = source organism: Mammarenavirus machupoense

For SDAALHNMI, the pKd (HLA-B*45:01; [5]) was 5.67, the pKd (HLA-B*40:01 [1]; [5]) was ≤ 4.45 and the pKd (HLA-B*40:02; [5]) was 5.71. The pKd (HLA-B*44:03; [5]) was ≤ 4.50, the pKd (HLA-B*18:01; [5]) was ≤ 4.11 and the pKd (HLA-B*44:02; [5]) was 5.15.
In the case of TPPGTADAF, the pKd (HLA-B*35:01; source organism: Dengue virus 3 Martinique/1243/1999) was 6.56.
In the case of VDYGVRFFFY, the pKd (HLA-B*45:01; [6]) was 6.35, the pKd (HLA-B*40:01 [1]; [6]) was 4.77 and the pKd (HLA-B*40:02; [6]) was ≤ 4.52. The pKd (HLA-B*44:03; [6]) was 6.10, the pKd (HLA-B*18:01; [6]) was ≤ 4.42 and the pKd (HLA-B*44:02; [6]) was 6.08.
QELGHEDLMA was tested, and the pKd (HLA-B*45:01; [6]) was 6.17, the pKd (HLA-B*40:01 [1]; [6]) was ≤ 4.57 and the pKd (HLA-B*40:02; [6]) was 5.59. For the same sequence, the pKd (HLA-B*44:03; [6]) was 5.63, the pKd (HLA-B*18:01; [6]) was ≤ 4.15 and the pKd (HLA-B*44:02; [6]) was 5.38.
In the case of KEFTRPLISG, the pKd (HLA-B*45:01; [6]) was 5.58, the pKd (HLA-B*40:01 [1]; [6]) was 5.80 and the pKd (HLA-B*40:02; [6]) was 4.71. For the same sequence, the pKd (HLA-B*18:01; [6]) was ≤ 4.15 and the pKd (HLA-B*44:02; [6]) was 5.00.
In the case of FHLRSRFAF, the pKd (HLA-B*39:01) was ≥ 9.00, the pKd (HLA-B*40:01 [2]) was ≤ 4.70 and the pKd (HLA-A*02:01) was ≤ 4.70. The pKd (HLA-A*31:01) was ≤ 4.70, the pKd (HLA-B*08:01) was 6.95 and the pKd (HLA-B*15:01) was ≤ 4.70. For the same sequence, the pKd (HLA-B*07:02) was ≤ 4.70, the pKd (HLA-A*03:01) was ≤ 4.70 and the pKd (HLA-A*01:01) was ≤ 4.70. For the same sequence, the pKd (HLA-B*27:05) was ≤ 4.70, the pKd (HLA-A*26:01 [3]) was ≤ 4.70 and the pKd (HLA-A*69:01) was ≤ 4.70. The pKd (HLA-A*11:01) was ≤ 4.70.
DEILLDGGAS was tested, and the pKd (HLA-B*45:01; [7]) was 5.23, the pKd (HLA-B*40:01 [1]; [7]) was ≤ 4.37 and the pKd (HLA-B*40:02; [7]) was 6.04. For the same sequence, the pKd (HLA-B*44:03; [7]) was ≤ 4.59, the pKd (HLA-B*18:01; [7]) was 7.15 and the pKd (HLA-B*44:02; [7]) was ≤ 5.00.
IDPLIVSTS was tested, and the pKd (HLA-B*45:01; [8]) was 4.72, the pKd (HLA-B*40:01 [1]; [8]) was ≤ 4.32 and the pKd (HLA-B*40:02; [8]) was 5.34. The pKd (HLA-B*44:03; [8]) was 4.74, the pKd (HLA-B*18:01; [8]) was ≤ 4.11 and the pKd (HLA-B*44:02; [8]) was ≤ 4.11.
LPDYGELTLD showed a pKd (HLA-B*35:01; source organism: Dengue virus 4 Philippines/H241/1956) of 5.00.
With YGGPISQHNY the pKd (HLA-B*35:01; source organism: Dengue virus 1 Brazil/97-11/1997) was 6.39 and the pKd (HLA-A*30:02) was 6.72.
Work on DPFPQSNAPI yielded a pKd (HLA-B*51:01) of 6.16.
For AEAQMSIQL, the pKd (HLA-B*45:01; [9]) was 6.61, the pKd (HLA-B*40:01 [1]; [9]) was 7.64 and the pKd (HLA-B*40:02; [9]) was 7.90. For the same sequence, the pKd (HLA-B*44:03; [9]) was 6.97, the pKd (HLA-B*18:01; [9]) was ≤ 4.63 and the pKd (HLA-B*44:02; [9]) was 7.43.
Work on LDLVLLNLL yielded a pKd (HLA-B*45:01; [10]) of 4.90, a pKd (HLA-B*40:01 [1]; [10]) of 4.73 and a pKd (HLA-B*40:02; [10]) of 7.31. For the same sequence, the pKd (HLA-B*44:03; [10]) was ≤ 4.34, the pKd (HLA-B*18:01; [10]) was ≤ 4.36 and the pKd (HLA-B*44:02; [10]) was ≤ 4.11.
EEVPTLIKTL showed a pKd (HLA-B*45:01; [11]) of 5.52, a pKd (HLA-B*40:01 [1]; [11]) of 5.12 and a pKd (HLA-B*40:02; [11]) of 5.20. The pKd (HLA-B*44:03; [11]) was 5.48, the pKd (HLA-B*18:01; [11]) was ≤ 4.15 and the pKd (HLA-B*44:02; [11]) was 5.07.
For KEINFLSQT, the pKd (HLA-B*45:01; [12]) was 6.19, the pKd (HLA-B*40:01 [1]; [12]) was ≤ 4.20 and the pKd (HLA-B*40:02; [12]) was 7.82. For the same sequence, the pKd (HLA-B*44:03; [12]) was 4.76, the pKd (HLA-B*18:01; [12]) was ≤ 4.55 and the pKd (HLA-B*44:02; [12]) was 4.79.
With SSTDQQEWM the pKd (HLA-B*58:01) was 5.41 and the pKd (HLA-B*57:01) was ≤ 4.70.
With EELSLMYETL the pKd (HLA-B*45:01; [12]) was 6.02, the pKd (HLA-B*40:01 [1]; [12]) was 4.98 and the pKd (HLA-B*40:02; [12]) was 6.96. For the same sequence, the pKd (HLA-B*44:03; [12]) was 5.88, the pKd (HLA-B*18:01; [12]) was 5.61 and the pKd (HLA-B*44:02; [12]) was 5.81.
In the case of SEEVVENPTI, the pKd (HLA-B*45:01; [6]) was 6.56, the pKd (HLA-B*40:01 [1]; [6]) was 5.98 and the pKd (HLA-B*40:02; [6]) was 6.40. The pKd (HLA-B*44:03; [6]) was 5.98, the pKd (HLA-B*18:01; [6]) was ≤ 4.31 and the pKd (HLA-B*44:02; [6]) was 6.33.
For IVIAPAMGM, the pKd (HLA-A*26:01 [4]) was ≤ 4.70.
